The series deals with the molecule itself. In words: cryo-EM structure; single particle cryo-EM of MscS in MSP1 E3D1 nanodiscs, POPC:POPG 4:1; 0.01% fluorinated octyl maltoside added; C7 symmetry in final refinement (the His-tagged sample also processed without symmetry, C1).

This is an account of results in paper PMC7299334, “Molecular basis of force-from-lipids gating in the mechanosensitive channel MscS” (eLife, 2019).

B1: MscS-Cryst (Δ2–26 MscS) (natural protein, E. coli, UniProt P0C0S1 1-286, looked up)
chain: MYAVNIVAALAIIIVGLIIARMISNAVNRLMISRKIDATVADFLSALVRYGIIAFTLIAALGRVGVQTASVIAVLGAAGLAVGLALQGSLSNLAAGVLLVMFRPFRAGEYVDLGGVAGTVLSVQIFSTTMRTADGKIIVIPNGKIIAGNIINFSREPVRRNEFIIGVAYDSDIDQVKQILTNIIQSEDRILKDREMTVRLNELGASSINFVVRVWSNSGDLQNVYWDVLERIKREFDAAGISFPYPQMDVNFKRVKEDKAA
notes: Small-conductance mechanosensitive channel MscS, E. coli, lacking the N-terminal anchor domain (residues 2-26 removed); The tag is surmised from the vector and from the statement that the purification was the same; also called MscS ∆2–27; MscS ∆1–27; source: E. coli MJF465 (pQE70), purified as the wild type, reconstituted in MSP1 E3D1 nanodiscs (POPC:POPG)
For the protein B1, the binding result is “binds”.

B2: E. coli small-conductance mechanosensitive channel MscS with N-terminal 6xHis tag (natural protein, UniProt P0C0S1 1-286, looked up)
chain: MEDLNVVDSINGAGSWLVANQALLLSYAVNIVAALAIIIVGLIIARMISNAVNRLMISRKIDATVADFLSALVRYGIIAFTLIAALGRVGVQTASVIAVLGAAGLAVGLALQGSLSNLAAGVLLVMFRPFRAGEYVDLGGVAGTVLSVQIFSTTMRTADGKIIVIPNGKIIAGNIINFSREPVRRNEFIIGVAYDSDIDQVKQILTNIIQSEDRILKDREMTVRLNELGASSINFVVRVWSNSGDLQNVYWDVLERIKREFDAAGISFPYPQMDVNFKRVKEDKAA
notes: Small-conductance mechanosensitive channel MscS, E. coli, full length; also called 6xHis-MscS-ND; MscS-ND; not shown: His6, N-terminal, kept
Take B2: the “stoichiometry N” value worked out at 7.
